{
  "source": "paper PMC4748275",
  "about": "“SpyRing interrogation: analyzing how enzyme resilience can be achieved with phytase and distinct cyclization chemistries” (Scientific Reports, 2016)",
  "system": "O=C(Cc1cccs1)N[C@@H]1C(=O)N2C(C(=O)O)=C(/C=C/c3ccc([N+](=O)[O-])cc3[N+](=O)[O-])CS[C@H]12",
  "experiment": "purified protein",
  "details": "50 mM NaH2PO4 pH 7.0, 0.1% BSA, 30 °C, 10-100 μM nitrocefin",
  "data": [
    {"substance": "BLA (TEM-1 β-lactamase) (Escherichia coli)", "values": [
      {"measurement": "Km", "value": "120 ± 3", "unit": "µM"},
      {"measurement": "kcat", "value": "1200 ± 30", "unit": "s⁻¹"}
    ]}
  ]
}
